Measurements: patent US20260216242A1 (ALMAC DISCOVERY, published 2026)

T1: ALPI His homodimer (human, UniProt P09923 20-503)
T1 construct: Whole entry with His tag; used in ELISA and BLI; also called hALPI
T1 sequence: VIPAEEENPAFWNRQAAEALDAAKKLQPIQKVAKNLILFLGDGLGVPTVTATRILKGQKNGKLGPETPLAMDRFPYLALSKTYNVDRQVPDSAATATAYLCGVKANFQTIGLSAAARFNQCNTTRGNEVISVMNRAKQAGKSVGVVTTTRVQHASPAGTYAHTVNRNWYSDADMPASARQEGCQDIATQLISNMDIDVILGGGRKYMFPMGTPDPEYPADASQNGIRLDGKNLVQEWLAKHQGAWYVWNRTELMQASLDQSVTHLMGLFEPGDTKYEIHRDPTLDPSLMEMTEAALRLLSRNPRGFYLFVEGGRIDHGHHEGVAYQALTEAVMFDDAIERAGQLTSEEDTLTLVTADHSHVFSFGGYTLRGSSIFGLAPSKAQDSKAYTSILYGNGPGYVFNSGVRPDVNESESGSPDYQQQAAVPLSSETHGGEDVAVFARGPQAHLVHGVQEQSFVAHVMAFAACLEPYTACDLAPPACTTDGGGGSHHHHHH

T2: Human ALPP (leucine zipper) (human)
T2 construct: Whole entry: ALPP fused with a cysteine stabilised leucine zipper and His tag; also called hALPP
T2 chain: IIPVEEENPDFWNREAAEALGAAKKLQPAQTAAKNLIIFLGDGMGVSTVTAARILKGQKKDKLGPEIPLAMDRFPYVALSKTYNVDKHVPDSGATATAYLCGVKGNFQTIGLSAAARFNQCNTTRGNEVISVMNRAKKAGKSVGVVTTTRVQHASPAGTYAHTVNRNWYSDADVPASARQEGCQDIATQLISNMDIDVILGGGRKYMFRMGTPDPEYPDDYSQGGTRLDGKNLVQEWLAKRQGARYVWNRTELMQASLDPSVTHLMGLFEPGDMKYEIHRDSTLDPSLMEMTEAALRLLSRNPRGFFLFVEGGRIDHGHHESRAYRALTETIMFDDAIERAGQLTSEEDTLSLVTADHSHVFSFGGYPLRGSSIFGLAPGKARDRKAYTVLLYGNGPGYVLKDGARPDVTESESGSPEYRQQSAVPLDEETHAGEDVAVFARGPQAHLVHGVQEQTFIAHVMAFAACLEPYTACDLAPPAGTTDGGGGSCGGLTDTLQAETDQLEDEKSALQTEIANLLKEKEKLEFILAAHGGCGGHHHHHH

T3: Human ALPL (leucine zipper) (human)
T3 construct: Whole entry: fused with a cysteine stabilised leucine zipper and His tag; also called hALPL
T3 chain: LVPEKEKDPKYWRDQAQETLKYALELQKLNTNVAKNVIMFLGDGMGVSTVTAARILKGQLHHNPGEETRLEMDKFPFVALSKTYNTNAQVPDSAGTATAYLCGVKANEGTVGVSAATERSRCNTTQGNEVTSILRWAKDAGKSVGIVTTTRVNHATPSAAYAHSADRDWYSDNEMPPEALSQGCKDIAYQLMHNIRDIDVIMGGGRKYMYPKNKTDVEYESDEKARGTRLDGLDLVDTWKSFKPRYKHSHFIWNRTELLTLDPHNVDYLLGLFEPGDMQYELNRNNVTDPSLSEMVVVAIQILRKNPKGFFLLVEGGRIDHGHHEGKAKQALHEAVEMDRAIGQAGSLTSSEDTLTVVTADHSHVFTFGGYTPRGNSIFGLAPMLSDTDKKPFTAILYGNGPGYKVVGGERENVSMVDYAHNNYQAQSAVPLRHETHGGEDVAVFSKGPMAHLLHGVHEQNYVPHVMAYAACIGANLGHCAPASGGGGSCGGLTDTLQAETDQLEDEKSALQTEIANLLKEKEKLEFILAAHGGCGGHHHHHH

T4: Human ALPP (leucine zipper) (human)
T4 construct: Soluble human ALPP fused to a disulphide stabilised leucine zipper and a His tag; The whole entry is the construct; also called hALPP; PLAP
T4 chain: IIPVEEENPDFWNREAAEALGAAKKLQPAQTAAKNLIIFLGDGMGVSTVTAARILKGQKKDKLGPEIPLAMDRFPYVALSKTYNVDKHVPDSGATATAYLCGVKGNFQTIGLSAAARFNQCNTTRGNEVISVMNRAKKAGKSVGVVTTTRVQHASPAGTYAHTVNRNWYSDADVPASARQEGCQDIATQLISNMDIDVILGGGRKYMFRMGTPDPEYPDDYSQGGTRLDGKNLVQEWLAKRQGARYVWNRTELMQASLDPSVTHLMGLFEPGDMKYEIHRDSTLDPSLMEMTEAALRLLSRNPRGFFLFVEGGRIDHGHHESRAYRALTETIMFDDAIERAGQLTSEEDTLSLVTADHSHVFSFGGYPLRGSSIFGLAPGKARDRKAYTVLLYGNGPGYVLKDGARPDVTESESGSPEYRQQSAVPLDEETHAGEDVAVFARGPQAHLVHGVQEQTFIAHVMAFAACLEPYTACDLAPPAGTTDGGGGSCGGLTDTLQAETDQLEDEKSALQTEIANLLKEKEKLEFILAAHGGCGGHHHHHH


Tests used:
ALPI His homodimer = target: T1, ALPI His homodimer; experiment: ELISA, antigen coated
Source text: ELISA was used to test the binding and specificity of the VHHs. […] Anti-Llama—HRP antibody was used for detection.

[1] = target: T2, Human ALPP (leucine zipper); experiment: BLI, antigen immobilised
Protocol: (§1) Binding kinetics were determined using the Biolayer Interferometry (BLI) Octet K2 system (Sartorius). […] All assays were conducted in PBS with a plate temperature of 25° C. Ka (M⁻¹s⁻¹), Kd (s⁻¹) and KD (nM) values were determined using Octet Data Analysis High Throughput software (ForteBio) for Biolayer Interferometry.

[2] = target: T3, Human ALPL (leucine zipper); experiment: BLI, antigen immobilised
Protocol: as §1

[3] = target: T4, Human ALPP (leucine zipper); experiment: BLI, KD app (antigen immobilised on AR2G sensor)
Protocol: Binding kinetics were determined using the Biolayer Interferometry (BLI) Octet K2 or R4 system (Sartorius). […] For KD apparent measurements, the ALPP proteins were immobilised in sodium acetate pH5 buffer to AR2G sensors using amine coupling. To measure 1:1 interactions, AHC biosensors were used to immobilise Fc-fused proteins. All assays were conducted in HBS-EP with a plate temperature of 25° C. Ka (M⁻¹s⁻¹), Kd (s⁻¹) and KD (nM) values were determined using Octet Data Analysis High Throughput software (Sartorius) for Biolayer Interferometry.

Binder	binding result (ALPI His homodimer)	Kd [1]	koff [1]	kon [1]	binding result [2]	kon [3]
A08 (VHH, not shown: small tags and cut ends) VHH: QVQLVESGGGLVQAGESLRLACAASGTIFSGNAVGWYRQAPEKQREWVSSITDYGDTDYAEAVKGRFTISRDNAKNTVYLQMNSLKPEDTAVYYCYVYQRGESEEYWGQGTKVTVSS	no binding (tested: 500 ng VHH)	0.03 nM	1.2e-05 s⁻¹	429000 M⁻¹ s⁻¹	no binding	–
A06 E10-hFc (S239C + S442C), mixed linkers (A06 - [G4S]1, E10 - [G4S]3) (Fc fusion, Biparatopic heterodimer; also called #707) chain 1: QVHLVESGGGLVQAGGSLRLSCAASGRTFLSMGWFRQAPGKEREFVAAISWTGGSTGYADSVKGRFTISRESDKETMYLQMNSLKPEDTAVYYCAARGDVYYGGDDATRYKYWGQGTQVTVSSGGGGSEPKSSDKTHTCPPCPAPELLGGPCVFLFPPKPKDTLMISRTPEVTCVVVDVSHEDPEVKFNWYVDGVEVHNAKTKPREEQYNSTYRVVSVLTVLHQDWLNGKEYKCKVSNKALPAPIEKTISKAKGQPREPQVYTLPPSRDELTKNQVSLYCLVKGFYPSDIAVEWESNGQPENNYKTTPPVLDSDGSFFLYSKLTVDKSRWQQGNVFSCSVMHEALHNHYTQKSLCLSPGK chain 2: QVQLVESGGGLVQAGGSLRLSCAVSGRALSDYNIGWFRQAPGKEREFVARKTWDGSSTRYDDSVKGRFTVSIEDAKNTAYLQMSSLKTEDTAVYYCAAGRYSRARGWEYDYWGQGTQVTVSSGGGGSGGGGSGGGGSEPKSSDKTHTCPPCPAPELLGGPCVFLFPPKPKDTLMISRTPEVTCVVVDVSHEDPEVKFNWYVDGVEVHNAKTKPREEQYNSTYRVVSVLTVLHQDWLNGKEYKCKVSNKALPAPIEKTISKAKGQPREPQVYTLPPSRDELTKNQVSLTCLVKGFYPSDIAVEWESNGQPENNYKTTPPVLDSDGSFFLTSKLTVDKSRWQQGNVFSCSVMHEALHNHYTQKSLCLSPGK	–	–	–	–	–	421000 M⁻¹ s⁻¹
A06 F05-hFc (S239C + S442C), mixed linkers (A06 - [G4S]1, F05 - [G4S]3) (Fc fusion, Biparatopic heterodimer; also called #708) chain 1: QVHLVESGGGLVQAGGSLRLSCAASGRTFLSMGWFRQAPGKEREFVAAISWTGGSTGYADSVKGRFTISRESDKETMYLQMNSLKPEDTAVYYCAARGDVYYGGDDATRYKYWGQGTQVTVSSGGGGSEPKSSDKTHTCPPCPAPELLGGPCVFLFPPKPKDTLMISRTPEVTCVVVDVSHEDPEVKFNWYVDGVEVHNAKTKPREEQYNSTYRVVSVLTVLHQDWLNGKEYKCKVSNKALPAPIEKTISKAKGQPREPQVYTLPPSRDELTKNQVSLYCLVKGFYPSDIAVEWESNGQPENNYKTTPPVLDSDGSFFLYSKLTVDKSRWQQGNVFSCSVMHEALHNHYTQKSLCLSPGK chain 2: QVQLVESGGGLVQAGGSLRLSCAASGRAFGDYNIGWFRQAPGKEREFVARRTWDGSSTRYDDSVKGRFTVSIDNAKNTAYLQMNSLKTEDTAVYYCAAGRYSRVRGWEYDYWGQGTQVTVSSGGGGSGGGGSGGGGSEPKSSDKTHTCPPCPAPELLGGPCVFLFPPKPKDTLMISRTPEVTCVVVDVSHEDPEVKFNWYVDGVEVHNAKTKPREEQYNSTYRVVSVLTVLHQDWLNGKEYKCKVSNKALPAPIEKTISKAKGQPREPQVYTLPPSRDELTKNQVSLTCLVKGFYPSDIAVEWESNGQPENNYKTTPPVLDSDGSFFLTSKLTVDKSRWQQGNVFSCSVMHEALHNHYTQKSLCLSPGK	–	–	–	–	–	426000 M⁻¹ s⁻¹
C06 (VHH, not shown: small tags and cut ends) VHH: QVQLVESGGGLVQPGGSLRVSCAASGPSLSNYAMGWFRQAPGKEREFVAGISWGGGRTSYTDSVKGRFTISRDNAKNTVYLQMNNLKPEDTGVYYCAGRYGRGRNVEYEYDYWGQGTQVTVSS	no binding (tested: 500 ng VHH)	< 0.01 nM	< 1e-07 s⁻¹	368000 M⁻¹ s⁻¹	no binding	–

Results, then the binder that gave them:

binding result (ALPI His homodimer)	Kd [1]	koff [1]	kon [1]	binding result [2]	kon [3]	Binder
no binding (tested: 500 ng VHH)	–	–	213000 M⁻¹ s⁻¹	no binding	–	B11 (VHH, not shown: small tags and cut ends) VHH: QVHLVESGGGSVQAGGSLRLSCAASGPSLSNYAMGWFRQAPGKEREFVAGISWGGGRTSYTDSVKGRFTISRDNAKNTVYLQMNNLKPEDTGVYYCAGRYGRGRNVEYEYDYWGQGTQVTVSS
no binding (tested: 500 ng VHH)	< 0.01 nM	< 1e-07 s⁻¹	97700 M⁻¹ s⁻¹	no binding	–	D11 (VHH, not shown: small tags and cut ends) VHH: QVQLVESGGGSVQAGGSLRLSCAASGPSLSNYAMGWFRQAPGKEREFVAGISWGGGRTSYTDSVKGRFTISRDNAKNTVYLQMNNLKPEDTGVYYCAGRYGRGRNVEYEYDYWGQGTMVTVSS
no binding (tested: 500 ng VHH)	< 0.01 nM	< 1e-07 s⁻¹	175000 M⁻¹ s⁻¹	no binding	–	D08 (VHH, not shown: small tags and cut ends) VHH: QVHLVESGGGSVQAGGSLRLSCAASGPSLSNYAMGWFRQAPGKEREFVAGISWGGGRTSYTDSVKGRFTISRDNAKNTVYLQMNNLKPEDTGVYYCAGRYGRGRNVEYEYDYWGQGTKVTVSS
no binding (tested: 500 ng VHH)	< 0.01 nM	< 1e-07 s⁻¹	394000 M⁻¹ s⁻¹	no binding	–	C05 (VHH, not shown: small tags and cut ends) VHH: QVQLVESGGGLVQAGGSLRLSCAASRRSFSEYAMGWFRQAPGKEREFVAAIGWSGVIEYADSVKGRFTISRDNAKDTVYLQMNSLKPEDTAVYYCAAGLGIRVVSQTPAYWGQGTQVTVSS
